The text below walks through data of patent US20250320281A1.

Holding throughout (experiment): cell-based or functional assay
Assay [1] deals with HIV-1 Env of isolate MGRM-G-019 (HIV-1).
Assay [2] has as its target HIV-1 Env of isolate MGRM-AE-002 (subtype AE) (HIV-1).
Assay [3] addresses HIV-1 Env of isolate MGRM-AE-005 (subtype AE) (HIV-1).
Assay [4] concerns the target HIV-1 Env of isolate 98IN022 (HIV-1).
Assay [5] addresses HIV-1 Env of isolate MGRM-D-001 (pseudovirus) (HIV-1).
Assay [6] has as its target HIV-1 Env of isolate MGRM-D-021 (pseudovirus) (HIV-1).
The target in assay [7] is HIV-1 Env of isolate MGRM-AE-004 (HIV-1).
In assay [8] the target is HIV-1 Env of isolate MGRM-Chronic-B-011 (subtype B pseudovirus) (HIV-1).
Assay [9] has as its target HIV-1 Env of isolate MGRM-AE-007 (HIV-1).
The target of assay [10] is HIV-1 Env of isolate APV_17 (subtype B pseudovirus) (HIV-1).
In assay [11] the target is HIV-1 Env of isolate MGRM-D-008 (pseudovirus) (HIV-1).
Assay [12] concerns the target HIV-1 Env of isolate SF162 (subtype B pseudovirus) (HIV-1) (UniProt P19550).
Assay [13] concerns the target HIV-1 Env of isolate MGRM-Chronic-B-020 (subtype B pseudovirus) (HIV-1).
The target of assay [14] is HIV-1 Env of isolate 92UG024 (clade D), on pseudovirus (HIV-1).
In assay [15] the target is HIV-1 Env of isolate JR-CSF (subtype B pseudovirus) (HIV-1) (UniProt P20871).
The target in assay [16] is HIV-1 NL43 Env (pseudovirus, clade B) (HIV-1).
Assay [17] has as its target HIV-1 NL43 envelope glycoprotein (Env) on pseudovirus (HIV-1).
Assay [18] deals with HIV-1 Env of isolate 92UG001 (HIV-1).
Assay [19] has as its target HIV-1 Env of isolate MGRM-AE-008 (subtype AE) (HIV-1).
The target in assay [20] is HIV-1 Env of isolate MG RM-D-005 (HIV-1).
The target of assay [21] is HIV-1 Env of isolate JRCSF (subtype B) (HIV-1) (UniProt P20871).
In assay [22] the target is HIV-1 Env of isolate MGRM-A-001 (HIV-1).
The target in assay [23] is HIV-1 Env of isolate MGRM-AG-002 (subtype AG) (HIV-1).
Assay [24] concerns the target HIV-1 Env of isolate MGRM-C-001 (subtype C) (HIV-1).
Assay [25] has as its target HIV-1 Env of isolate 92RW008 (HIV-1).
In assay [26] the target is HIV-1 Env of isolate 93TH305 (HIV-1).
The target of assay [27] is HIV-1 Env of isolate CAAN.A2 (subtype B) (HIV-1).
Assay [28] addresses HIV-1 Env of isolate MGRM-Chronic-B-023 (subtype B) (HIV-1).
The target in assay [29] is HIV-1 Env of isolate APV-6 (HIV-1).
In assay [30] the target is HIV-1 Env of pseudovirus MGRM-AG-002 (clade CRF_AG) (HIV-1).
The target in assay [31] is HIV-1 APV-17 envelope glycoprotein (Env) on pseudovirus (HIV-1).
The target in assay [32] is HIV-1 Env of isolate LAVIC_18 (HIV-1).
For assay [33], the target named is HIV-1 Env of isolate APV_17, clade B, on pseudovirus (HIV-1).
The target in assay [34] is HIV-1 Env of pseudovirus MGRM-AG-003 (clade CRF_AG) (HIV-1).
The target of assay [35] is HIV-1 Env of isolate MGRM-D-008 (clade D pseudovirus) (HIV-1).
Assay [36] concerns the target HIV-1 Env of isolate 6535.3 (Acute), clade B, on pseudovirus (HIV-1).
In assay [37] the target is HIV-1 Env of isolate 92UG046 (clade D pseudovirus) (HIV-1).
The target of assay [38] is HIV-1 Env of pseudovirus MGRM-AE-006 (clade CRF01_AE) (HIV-1).
Assay [39] has as its target HIV-1 Env of isolate MGRM-D-004 (clade D pseudovirus) (HIV-1).

Sequence of 4995_E20 (PGT-142) (antibody) (VH): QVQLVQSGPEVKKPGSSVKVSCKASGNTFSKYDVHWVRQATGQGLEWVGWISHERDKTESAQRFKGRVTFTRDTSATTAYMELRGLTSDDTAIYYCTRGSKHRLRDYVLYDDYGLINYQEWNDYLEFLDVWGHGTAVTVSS
Sequence of 4995_E20 (PGT-142) (antibody) (VL): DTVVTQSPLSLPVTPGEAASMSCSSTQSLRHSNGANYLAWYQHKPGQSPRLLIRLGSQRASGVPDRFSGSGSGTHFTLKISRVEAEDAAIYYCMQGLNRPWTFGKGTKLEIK
Sequence of 4970_K22 (PGT-144) (antibody) (VH): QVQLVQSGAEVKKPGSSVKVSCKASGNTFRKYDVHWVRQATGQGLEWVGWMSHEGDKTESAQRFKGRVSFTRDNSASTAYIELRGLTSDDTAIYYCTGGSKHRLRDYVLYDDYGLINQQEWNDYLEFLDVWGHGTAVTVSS
Sequence of 4970_K22 (PGT-144) (antibody) (VL): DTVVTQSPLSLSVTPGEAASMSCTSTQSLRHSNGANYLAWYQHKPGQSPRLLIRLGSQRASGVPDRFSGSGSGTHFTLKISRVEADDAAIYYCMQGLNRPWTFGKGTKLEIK
Sequence of 4993_K13 (PGT-141) (antibody) (VH): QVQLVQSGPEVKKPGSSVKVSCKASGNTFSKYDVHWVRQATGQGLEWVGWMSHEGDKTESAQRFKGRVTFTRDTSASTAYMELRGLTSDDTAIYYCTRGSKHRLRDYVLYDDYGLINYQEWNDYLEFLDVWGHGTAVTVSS
Sequence of 4980_N08 (PGT-143) (antibody) (VH): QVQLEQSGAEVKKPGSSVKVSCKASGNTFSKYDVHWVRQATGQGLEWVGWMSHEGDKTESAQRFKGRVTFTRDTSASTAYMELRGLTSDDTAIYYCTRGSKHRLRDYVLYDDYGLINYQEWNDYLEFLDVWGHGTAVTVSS
Sequence of 4980_N08 (PGT-143) (antibody) (VL): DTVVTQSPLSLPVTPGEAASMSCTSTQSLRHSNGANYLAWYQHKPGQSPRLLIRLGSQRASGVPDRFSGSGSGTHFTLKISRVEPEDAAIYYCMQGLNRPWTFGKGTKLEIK

With 4970_K22 (PGT-144) (antibody), the IC50 (µg/mL), pseudovirus neutralization in assay [1], in assay [2] and in assay [3] was greater than 50 µg/mL in each case.

One may read the IC50 as the concentration that gives 50% inhibition. Low readings indicate inhibition by little substance, high ones a need for much substance. For 4858_P08 (PGT-123) (antibody), the neutralization IC50 in assay [4] was 0.011 µg/mL; in assay [17], greater than 10 µg/mL. For the same substance, the IC50, pseudovirus neutralization in assay [5] is 0.147 µg/mL; in assay [6], 11.1 µg/mL; in [11] it was greater than 50 µg/mL; in assay [14] it was greater than 10 µg/mL. In addition, the IC50 in assay [7] and in assay [9] was greater than 50 µg/mL each time. For the same substance, the IC50 (µg/mL), pseudovirus neutralization in assay [8] was greater than 50 µg/mL; in assay [10], 0.114 µg/mL; in assay [12], 0.005 µg/mL; in assay [13] it was 0.005 µg/mL; in assay [15], 0.046 µg/mL. The IC50 neutralization in assay [16] is greater than 10 µg/mL. Further, in [17], the neutralization IC80 was greater than 10 µg/mL. The neutralization IC90 in assay [17] was greater than 10 µg/mL. The substance also registered a neutralization IC95 in assay [17] greater than 10 µg/mL.

Regarding 5136_H01 (PGT-131) (antibody), the IC50 (µg/mL), pseudovirus neutralization in [18] is greater than 50 µg/mL; in assay [19], greater than 50 µg/mL; in assay [20], greater than 50 µg/mL; in [23], greater than 50 µg/mL; in [2] it was greater than 50 µg/mL; in assay [3], 0.017 µg/mL. The IC50 neutralization in assay [21] was 0.029 µg/mL; in [24], greater than 50 µg/mL; in [27], greater than 50 µg/mL; in assay [28], greater than 50 µg/mL. The IC50 in assay [22] is greater than 50 µg/mL; in assay [25], 1.01 µg/mL. Also, the values for the neutralization IC50 in assay [26] and in assay [29] were 0.016 µg/mL and greater than 50 µg/mL, respectively.

For 4980_N08 (PGT-143) (antibody), the values for the IC50 (µg/mL), pseudovirus neutralization in [1], in [2] and in assay [3] were 4.77 µg/mL, greater than 50 µg/mL and greater than 50 µg/mL, respectively.

In turn, 5145_B14 (PGT-127) (antibody) returned a neutralization IC50 in [4] of 19.2 µg/mL. The IC50, pseudovirus neutralization in [5] was 2.23 µg/mL; in assay [6] it was 0.056 µg/mL; in assay [11], greater than 50 µg/mL. Also, the IC50 in assay [7] and in assay [9] was greater than 50 µg/mL throughout. Further, the IC50 (µg/mL), pseudovirus neutralization in assay [8] is 0.297 µg/mL; in assay [10], 10.4 µg/mL; in assay [12] it was 0.019 µg/mL; in [13], 0.05 µg/mL; in [15], 0.018 µg/mL.

For 4995_E20 (PGT-142) (antibody), the IC50 (µg/mL), pseudovirus neutralization in [1] was 5.95 µg/mL; in [2] it was greater than 50 µg/mL; in [3] it was greater than 50 µg/mL.

In the case of 5123_A06 (PGT-125) (antibody), the neutralization IC50 in [4] is 22.1 µg/mL. Also, the IC50, pseudovirus neutralization in assay [5] was 2.84 µg/mL; in [6], 0.015 µg/mL; in assay [11], greater than 50 µg/mL; in assay [14], greater than 10 µg/mL. Further, the 50% inhibitory concentration (IC50) was greater than 50 µg/mL in assay [7] and 0.876 µg/mL in assay [9]. Moreover, the IC50 (µg/mL), pseudovirus neutralization in assay [8] was 3.23 µg/mL; in assay [10], 8.06 µg/mL; in [12], 0.004 µg/mL; in assay [13], 0.087 µg/mL; in assay [15] it was 0.004 µg/mL. Besides, in [16], the IC50 neutralization was greater than 10 µg/mL.

In assay [4], 5141_B17 (PGT-126) (antibody) came in with a neutralization IC50 of 0.279 µg/mL. The IC50, pseudovirus neutralization in assay [5] was 0.084 µg/mL; in assay [6] it was 0.047 µg/mL; in assay [11], 43.1 µg/mL; in [14] it was greater than 10 µg/mL; in [17], greater than 10 µg/mL. The IC50 in assay [7] and in assay [9] was greater than 50 µg/mL each time. The IC50 (µg/mL), pseudovirus neutralization in assay [8] worked out at 0.108 µg/mL; in assay [10], 0.353 µg/mL; in assay [12], 0.003 µg/mL; in assay [13], 0.021 µg/mL; in assay [15], 0.008 µg/mL. The IC50 neutralization in assay [16] is greater than 10 µg/mL. The substance also came in with an IC80 (pseudovirus neutralization) in assay [17] greater than 10 µg/mL. Further, the IC90 (pseudovirus neutralization) in assay [17] was greater than 10 µg/mL. The IC95 (pseudovirus neutralization) in assay [17] is greater than 10 µg/mL.

In assay [4], 4838_L06 (PGT-121) (antibody) yielded a neutralization IC50 of 0.007 µg/mL. The IC50, pseudovirus neutralization in assay [5] is 0.615 µg/mL; in assay [6], 5.33 µg/mL; in assay [11], greater than 50 µg/mL; in [14], greater than 10 µg/mL. In addition, the IC50 in [7] and in assay [9] was greater than 50 µg/mL in each case. In addition, the IC50 (µg/mL), pseudovirus neutralization in assay [8] is greater than 50 µg/mL; in assay [10] it was 0.066 µg/mL; in assay [12], 0.005 µg/mL; in assay [13], 0.004 µg/mL; in [15], 0.027 µg/mL. Further, the IC50 neutralization in assay [16] is greater than 10 µg/mL.

VRC01 (antibody): the IC50 (µg/mL), pseudovirus neutralization in [1] was determined as 0.06 µg/mL; in assay [2], 0.217 µg/mL; in [3], 0.029 µg/mL.

As to 4993_K13 (PGT-141) (antibody), the IC50 (µg/mL), pseudovirus neutralization in assay [1] was 20.3 µg/mL; in [2], greater than 50 µg/mL; in assay [3], greater than 50 µg/mL.

On to 1496_C09 (PG9) (TCN-109) (antibody), for which the IC50 came to 0.04 µg/mL in assay [30], 0.1 µg/mL in assay [32], 9.71 µg/mL in assay [34] and 0.05 µg/mL in [38]. For the same substance, the IC50, pseudovirus neutralization is 26.4 µg/mL in assay [31] and 1.91 µg/mL in [14]. The IC50 (µg/ml), pseudovirus neutralization was 14.6 µg/mL in assay [33]; 6.86 µg/mL in assay [35]; 0.22 µg/mL in assay [36]; 0.64 µg/mL in [37]; 0.03 µg/mL in [39]. Moreover, the IC50 (µg/mL), pseudovirus neutralization in assay [1] came out at 14.6 µg/mL; in assay [26], 8.12 µg/mL; in assay [14] it was 1.86 µg/mL. Moreover, in assay [16], the IC50 neutralization stood at 0.687 µg/mL.

As to PGV04 (antibody), the IC50 in [18] came to 0.553 µg/mL. The IC50 (µg/mL), pseudovirus neutralization in assay [1] amounted to 0.027 µg/mL; in assay [26] it was 0.255 µg/mL; in assay [14], 0.201 µg/mL.

For 4877_D15 (PGT-122) (antibody), the neutralization IC50 in [4] came out at 0.032 µg/mL. Moreover, the IC50, pseudovirus neutralization was 1.13 µg/mL in assay [5], 11.7 µg/mL in [6], greater than 50 µg/mL in [11] and greater than 10 µg/mL in [14]. Further, the IC50 in assay [7] and in [9] was greater than 50 µg/mL each time. For the same substance, the IC50 (µg/mL), pseudovirus neutralization in assay [8] is greater than 50 µg/mL; in [10] it was 0.25 µg/mL; in [12], 0.009 µg/mL; in assay [13], 0.005 µg/mL; in assay [15], 0.057 µg/mL. In [16], this substance displayed an IC50 neutralization greater than 10 µg/mL.
